Our source for the percent of GluA1 complexed with GluA2 (the paper's estimate), percent of GluA1 removed by IP with GluA2/3+GluA4 antibodies and percent of GluA2 left in the unbound fraction after IP with GluA1 antibody values is paper PMC3005033.

What all share (experiment): co-IP
The target of assay [1] is AMPA receptor subunit GluA2 (rat (endogenous in adult Sprague-Dawley rat brain)) (UniProt P19491).
For assay [2], the target named is GluA2/3+GluA4 (rat (endogenous in adult Sprague-Dawley rat brain)).
Assay [3] has as its target AMPA receptor subunit GluA2 (rat (endogenous in adult Sprague-Dawley rat brain)) (UniProt P19491). This is another data set of the same source.
For assay [4], the target named is AMPA receptor subunit GluA1 (rat (endogenous in adult Sprague-Dawley rat brain)) (UniProt P19490).
Assay [5] has the same target. The source holds these as a separate data set.
The target is the same in assay [6]. This is another data set of the same source.
Assay [7] has the same target. This is another data set of the same source.

Like-named read-outs stand apart in the source and are kept apart here.

Chain of AMPA receptor subunit GluA1 (rat (endogenous in adult Sprague-Dawley rat brain)) (P19490 19-907): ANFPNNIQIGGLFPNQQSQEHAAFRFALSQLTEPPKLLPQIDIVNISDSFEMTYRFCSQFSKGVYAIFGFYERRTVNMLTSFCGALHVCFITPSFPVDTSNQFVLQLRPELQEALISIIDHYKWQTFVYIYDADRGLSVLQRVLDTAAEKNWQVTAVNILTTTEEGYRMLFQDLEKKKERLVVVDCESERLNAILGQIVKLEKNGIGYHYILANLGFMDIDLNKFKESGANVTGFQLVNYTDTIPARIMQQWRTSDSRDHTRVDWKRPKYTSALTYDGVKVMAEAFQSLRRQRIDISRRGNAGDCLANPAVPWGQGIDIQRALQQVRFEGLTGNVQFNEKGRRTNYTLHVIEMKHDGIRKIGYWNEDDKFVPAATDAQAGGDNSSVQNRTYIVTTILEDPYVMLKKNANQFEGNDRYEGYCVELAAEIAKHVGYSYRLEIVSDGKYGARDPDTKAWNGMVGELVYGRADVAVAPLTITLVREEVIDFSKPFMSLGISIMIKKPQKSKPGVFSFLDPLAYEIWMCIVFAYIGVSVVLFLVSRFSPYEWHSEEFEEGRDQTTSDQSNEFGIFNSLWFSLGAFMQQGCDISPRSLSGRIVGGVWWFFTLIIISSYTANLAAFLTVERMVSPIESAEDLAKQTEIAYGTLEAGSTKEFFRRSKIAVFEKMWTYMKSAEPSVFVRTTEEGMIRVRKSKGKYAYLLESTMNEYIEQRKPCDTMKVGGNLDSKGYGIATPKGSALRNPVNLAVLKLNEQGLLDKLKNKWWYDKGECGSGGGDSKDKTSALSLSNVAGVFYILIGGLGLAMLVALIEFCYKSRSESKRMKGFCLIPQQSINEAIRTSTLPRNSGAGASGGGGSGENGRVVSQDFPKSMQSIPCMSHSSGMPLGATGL
Chain of AMPA receptor subunit GluA1 (P19490 19-907): as above
Chain of AMPA receptor subunit GluA2 (P19491 22-883): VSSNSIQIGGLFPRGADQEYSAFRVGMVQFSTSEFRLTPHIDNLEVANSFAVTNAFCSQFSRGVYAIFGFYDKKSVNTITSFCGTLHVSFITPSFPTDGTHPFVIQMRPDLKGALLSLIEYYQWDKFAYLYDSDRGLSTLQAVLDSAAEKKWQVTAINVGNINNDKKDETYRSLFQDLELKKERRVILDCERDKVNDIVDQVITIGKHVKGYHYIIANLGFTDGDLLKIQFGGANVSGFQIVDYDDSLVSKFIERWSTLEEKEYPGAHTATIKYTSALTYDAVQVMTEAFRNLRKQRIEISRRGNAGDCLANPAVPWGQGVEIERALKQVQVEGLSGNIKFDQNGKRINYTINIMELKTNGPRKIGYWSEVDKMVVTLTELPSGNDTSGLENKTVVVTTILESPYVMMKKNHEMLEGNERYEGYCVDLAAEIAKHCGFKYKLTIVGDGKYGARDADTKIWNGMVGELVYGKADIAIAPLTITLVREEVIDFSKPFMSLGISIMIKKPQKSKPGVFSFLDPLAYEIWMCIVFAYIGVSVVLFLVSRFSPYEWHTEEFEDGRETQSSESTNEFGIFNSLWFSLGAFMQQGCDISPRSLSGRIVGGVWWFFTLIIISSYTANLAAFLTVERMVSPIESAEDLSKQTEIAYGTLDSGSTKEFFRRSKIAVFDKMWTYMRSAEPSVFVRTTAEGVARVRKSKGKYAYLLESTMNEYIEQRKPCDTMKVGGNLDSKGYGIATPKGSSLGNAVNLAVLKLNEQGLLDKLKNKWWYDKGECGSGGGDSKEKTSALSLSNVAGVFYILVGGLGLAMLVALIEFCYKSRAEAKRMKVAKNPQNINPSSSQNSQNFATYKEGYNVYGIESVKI
Chain of AMPA receptor subunit GluA2 (rat (endogenous in adult Sprague-Dawley rat brain)) (P19491 22-883): as above

Consider “AMPA receptor subunit GluA1 (from UniProt P19490 19-907)”, for which the percent of GluA1 complexed with GluA2 (the paper's estimate) in assay [1] and in assay [3] was greater than 80% throughout. In addition, the percent of GluA1 removed by IP with GluA2/3+GluA4 antibodies in assay [2] was 93%.

Turning to “AMPA receptor subunit GluA2 (from UniProt P19491 22-883)”, the percent of GluA2 left in the unbound fraction after IP with GluA1 antibody in assay [4] was determined as 53%; in assay [5] it was 55%; in assay [6], 62%; in assay [7] it was 65%.
